In patent US20180002412A1 (UNIVERSITY OF CONNECTICUT, published 2018):

Tests used:
Clathrin heavy chain 1 = biological target: T1, Clathrin heavy chain 1 (UniProt Q00610 2-1675); experiment: immunoprecipitation from MDA-MB-231 1% Triton X-100 lysate, gel band identified by LC-MS/MS
T1 construct: Endogenous protein, immunoprecipitated from cell lysate and stained in permeabilized MCF7 cells; also called CLTC
Procedure: FIGS. 3 A and B show immunoprecipitation of respective target antigens by HCAb1 and HCAb2. 20 μg of HCAb1 and HCAb2 were used to immunoprecipitate the target antigens from 1% Triton X-100 (A) or 1% Triton X-100+0.1% SDS (B) MDA-MB-231 lysates. The immunoprecipitated proteins were run on a reducing SDS-PAGE gel and the proteins in the gel were stained with SYPRO® Ruby stain. * indicates the specific band for HCAb1 (A) and HCAb2 (B).
In order to determine the antigens recognized by the HCAbs, we performed immunoprecipitation of the antigens followed by protein identification using mass spectrometry. We chose MDA-MB-231 cell lysates since the respective target antigens for both HCAb1 (FIG. 1L) and HCAb2 (FIGS. 1C, 1I and 1O) were abundant in MDA-MB-231 cells. The immunoprecipitated proteins were run on a reducing SDS-PAGE gel and visualized using SYPRO® Ruby stain. […] Furthermore, these buffer conditions were unfavorable for HCAb1 to immunoprecipitate the band seen previously (FIG. 3A) in the buffer lacking SDS.
The specific gel bands (*) observed in FIGS. 3A and 3B were excised and the tryptic peptides were analyzed by mass spectrometry. Peptides identified from the analysis were used to search the SwissProt database to obtain the list of target proteins. Tables 1 and 2 list the top five proteins identified from the HCAb1 and HCAb2 immunoprecipitated bands, respectively. […]

[1] = biological target: T2, HSP90 (endogenous, from MDA-MB-231 cells and MDA-MB-231 xenograft tumor lysates) (human, UniProt P08238 2-724); experiment: immunoprecipitation from MDA-MB-231 xenograft tumor lysates, immunoblot with commercial HSP90 antibody
T2 construct: The isoform is not resolved in these experiments; HSP90α (P07900) may also be present; also called cell surface HSP90
T2 sequence (P08238 2-724 limits assumed): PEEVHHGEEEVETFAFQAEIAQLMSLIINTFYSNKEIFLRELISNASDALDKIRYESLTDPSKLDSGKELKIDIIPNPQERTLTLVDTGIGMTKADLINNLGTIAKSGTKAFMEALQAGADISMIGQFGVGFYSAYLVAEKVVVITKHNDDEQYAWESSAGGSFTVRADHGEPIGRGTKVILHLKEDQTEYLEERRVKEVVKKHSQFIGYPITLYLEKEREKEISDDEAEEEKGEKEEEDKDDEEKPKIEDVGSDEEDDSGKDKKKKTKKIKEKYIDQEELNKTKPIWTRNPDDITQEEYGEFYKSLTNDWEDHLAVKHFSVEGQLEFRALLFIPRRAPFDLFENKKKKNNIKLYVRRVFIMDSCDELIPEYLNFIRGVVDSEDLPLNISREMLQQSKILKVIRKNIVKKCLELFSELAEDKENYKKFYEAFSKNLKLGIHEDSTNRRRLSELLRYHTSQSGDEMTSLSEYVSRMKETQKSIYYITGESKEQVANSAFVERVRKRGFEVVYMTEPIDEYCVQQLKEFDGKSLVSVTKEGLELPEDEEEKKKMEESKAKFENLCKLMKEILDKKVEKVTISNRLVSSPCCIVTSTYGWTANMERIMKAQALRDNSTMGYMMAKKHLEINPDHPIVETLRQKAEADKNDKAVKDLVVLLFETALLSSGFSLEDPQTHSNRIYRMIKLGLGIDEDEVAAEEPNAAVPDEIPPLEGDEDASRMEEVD
Procedure: RIPA lysates of xenograft tumor pieces were used for immunoprecipitation with 15 μg of HCAb1 and HCAb2. Immunoprecipitated HSP90β protein was detected on an immunoblot using commercial HSP90 antibody. […] Equal amounts of HCAb1 and HCAb2 were pulled down as detected by anti-mouse IgG antibody.
Xenograft tumor pieces were placed in 500 μL of 1% Triton™ X-100+0.1% SDS/PBS lysis buffer supplemented with 0.2 mM sodium orthovanadate and fresh protease inhibitor cocktail (1:100) and homogenized using polytron homogenizer for 30 sec −1 min on ice. Homogenates were spun at 14,000 rpm for 20 min at 4° C. and supernatants were used for immunoprecipitation.
We also wanted to determine if HCAb2 can bind to HSP90 from the xenograft tumor lysates. Xenograft tumor pieces were homogenized and incubated with exogenous HCAb1 and HCAb2. Immunoprecipitated proteins were detected using the commercial HSP90 antibody. […] In summary, we observed that HCAb2 bound preferentially to a small population of MDA-MB-231 xenograft tumor cells in comparison to the normal mouse tissues and also pulled down HSP90 from xenograft tumor lysates.

Recombinant human HSP90β = biological target: T3, Recombinant human HSP90β (human, UniProt P08238 1-724, limits assumed); experiment: immunoprecipitation of recombinant HSP90β, immunoblot with commercial HSP90 antibody
T3 construct: Bought protein; also called heat shock protein HSP 90-beta; HSP90AB1
T3 sequence (P08238 whole entry): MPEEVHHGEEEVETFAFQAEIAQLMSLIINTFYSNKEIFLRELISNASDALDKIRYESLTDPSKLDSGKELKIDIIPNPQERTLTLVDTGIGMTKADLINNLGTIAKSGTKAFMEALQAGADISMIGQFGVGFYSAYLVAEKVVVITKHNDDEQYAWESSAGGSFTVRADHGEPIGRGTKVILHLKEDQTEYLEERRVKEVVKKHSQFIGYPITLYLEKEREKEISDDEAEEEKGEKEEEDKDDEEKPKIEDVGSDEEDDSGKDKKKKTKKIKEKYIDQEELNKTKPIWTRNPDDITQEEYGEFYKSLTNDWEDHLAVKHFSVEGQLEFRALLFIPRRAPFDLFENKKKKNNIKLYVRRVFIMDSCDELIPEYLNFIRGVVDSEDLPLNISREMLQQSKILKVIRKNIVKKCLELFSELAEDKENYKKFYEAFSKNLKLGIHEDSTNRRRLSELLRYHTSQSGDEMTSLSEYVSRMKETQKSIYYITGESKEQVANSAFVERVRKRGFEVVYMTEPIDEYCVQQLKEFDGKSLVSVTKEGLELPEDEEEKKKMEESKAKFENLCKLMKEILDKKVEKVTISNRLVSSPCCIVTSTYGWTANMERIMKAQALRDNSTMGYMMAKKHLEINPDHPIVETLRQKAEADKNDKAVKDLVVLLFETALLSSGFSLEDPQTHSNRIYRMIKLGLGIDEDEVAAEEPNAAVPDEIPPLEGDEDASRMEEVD
Procedure: FIGS. 4 A and B show a validation of the target antigens of HCAb1 and HCAb2. […] Immunoprecipitation of HSP90 was performed from cytosolic and plasma membrane (PM) fractions using HCAb2. The immunoprecipitated HSP90 was detected using a commercial HSP90 antibody. […] HCAb1 and HCAb2 (5 μg each) were used to immunoprecipitate recombinant HSP90β (1 μg) resuspended in either 1% Triton X-100+0.1% SDS or 1% Triton X-100+1% SDS buffers. The immunoprecipitated HSP90β protein was detected using a commercial HSP90 antibody. Equal amounts of HCAb1 and HCAb2 were pulled down as detected by anti-mouse IgG antibody.
The list of proteins identified for HCAb2 contained both HSP90α and HSP90β isoforms with HSP90β being the highest scoring protein (Table 2). […] Of the 45 peptides, 3 peptides were unique to HSP90α, while 15 peptides were unique to HSP90β and the remaining 27 peptides were common to both the isoforms. […] To test this, we used recombinant human HSP90β (highest scoring protein from Table 2) to determine the specificity of HCAb2. HCAb1 and HCAb2 were examined for their ability to immunoprecipitate HSP90β and the presence of HSP90β detected using the commercial HSP90 antibody. […] This interaction was abolished when the SDS concentration was elevated from 0.1% to 1%. […]

T1 sequence (Q00610 2-1675 limits assumed): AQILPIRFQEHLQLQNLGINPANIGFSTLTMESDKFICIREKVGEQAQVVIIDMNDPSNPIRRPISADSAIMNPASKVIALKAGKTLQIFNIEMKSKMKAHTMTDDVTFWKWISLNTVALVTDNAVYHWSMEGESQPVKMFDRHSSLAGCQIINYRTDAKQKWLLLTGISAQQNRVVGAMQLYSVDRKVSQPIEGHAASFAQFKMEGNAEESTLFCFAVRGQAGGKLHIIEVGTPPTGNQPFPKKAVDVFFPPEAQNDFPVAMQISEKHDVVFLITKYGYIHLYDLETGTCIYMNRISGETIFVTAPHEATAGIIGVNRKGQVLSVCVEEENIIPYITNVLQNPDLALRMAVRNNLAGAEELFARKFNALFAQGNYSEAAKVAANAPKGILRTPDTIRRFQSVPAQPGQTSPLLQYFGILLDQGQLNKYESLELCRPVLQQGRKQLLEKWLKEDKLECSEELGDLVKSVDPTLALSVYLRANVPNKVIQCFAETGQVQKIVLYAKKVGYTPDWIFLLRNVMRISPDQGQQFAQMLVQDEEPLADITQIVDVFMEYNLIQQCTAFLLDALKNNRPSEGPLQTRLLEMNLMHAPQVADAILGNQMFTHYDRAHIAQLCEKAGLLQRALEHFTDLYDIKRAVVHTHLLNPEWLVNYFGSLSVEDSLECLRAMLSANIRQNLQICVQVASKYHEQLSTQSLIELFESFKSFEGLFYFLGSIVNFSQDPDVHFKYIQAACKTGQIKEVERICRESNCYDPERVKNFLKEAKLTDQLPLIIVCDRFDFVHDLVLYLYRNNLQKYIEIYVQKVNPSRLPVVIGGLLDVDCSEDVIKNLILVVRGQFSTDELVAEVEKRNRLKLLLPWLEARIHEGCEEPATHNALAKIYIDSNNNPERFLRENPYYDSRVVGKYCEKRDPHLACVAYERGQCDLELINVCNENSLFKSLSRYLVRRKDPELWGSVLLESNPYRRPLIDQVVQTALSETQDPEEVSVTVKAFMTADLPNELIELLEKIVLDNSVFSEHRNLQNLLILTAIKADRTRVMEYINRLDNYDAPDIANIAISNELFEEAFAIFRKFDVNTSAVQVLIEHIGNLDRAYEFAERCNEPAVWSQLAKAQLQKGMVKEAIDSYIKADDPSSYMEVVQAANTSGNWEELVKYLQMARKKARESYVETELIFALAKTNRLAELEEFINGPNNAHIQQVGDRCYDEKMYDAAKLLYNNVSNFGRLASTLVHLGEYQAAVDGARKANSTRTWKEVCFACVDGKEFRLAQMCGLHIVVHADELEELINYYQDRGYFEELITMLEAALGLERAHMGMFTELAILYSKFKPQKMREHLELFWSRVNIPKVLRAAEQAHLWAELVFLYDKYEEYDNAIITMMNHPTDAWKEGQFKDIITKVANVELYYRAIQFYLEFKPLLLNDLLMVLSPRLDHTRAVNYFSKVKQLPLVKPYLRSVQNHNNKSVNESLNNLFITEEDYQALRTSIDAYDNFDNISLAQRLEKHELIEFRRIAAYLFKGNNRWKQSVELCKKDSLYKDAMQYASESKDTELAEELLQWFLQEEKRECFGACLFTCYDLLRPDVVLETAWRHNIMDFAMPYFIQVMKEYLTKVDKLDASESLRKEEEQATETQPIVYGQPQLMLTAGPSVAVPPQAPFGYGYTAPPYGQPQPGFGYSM

B1: HCAb1 (Fc fusion)
heavy: QVQLVQSGGGLVQPGGSLRLSCAASGFTFSSYAMSWVRQAPGKGLEWVSAISGSGGSTYYADSVKGRFTISRDNSKNTLYLQMNSLRAEDTAVYYCARQEGQWLVQIDYWGQGTLVTVSS
notes: Human VH fused to the mouse Fc domain, no light chain, bivalent; It served as the control antibody for HCAb2; also called heavy chain antibody 1; not shown: mouse Fc domain from vector pCMV6-AC-FC-S (OriGene), with any junction residues encoded by the PCR primers
B1: binds (Clathrin heavy chain 1); no binding (tested: 15 µg of HCAb1) [1]; no binding (tested: 1 µg HSP90β) (Recombinant human HSP90β).
